Data published in patent US20230057012A1, “TGFB INHIBITORS AND USE THEREOF” (Scholar Rock, Inc., priority 2020, published 2023).

Target: antigen of FIG. 2 (not named)
Experiment: SPR Biacore, Fab (FIG. 2)

times longer bound than the reference antibody: > 50 fold
B1: Ab46 Fab (Fab, V domains shown)
VH: EVQLLESGGGLVQPGGSLRLSCAASGFTFADYAMTWVRQAPGKGLEWVSAISGSGAATYFADSVKGRFTISRDNSKNTLYLQMNSLRAEDTAVYYCARVSSGHWDYDYWGQGTLVTVSS
VL: DIQLTQSPSSLSASVGDRVTITCRASQSISSYLNWYQQKPGKAPKLLIYAASGLESGVPSRFSGSGSGTDFTLTISSLQPEDFATYYCQQTYGVPLTFGGGTKVEIK
